# Source: the DeepSol protein solubility set
# Assay: soluble on expression in E. coli; label from the status in PepcDB or PDB records
row,Sequence,soluble on expression in E. coli
1,MGSDKIHHHHHHMKKWLVLGVAAVAFFSYENTPMEQAEADYPKSGGTLIDRYTSEYPGYDWEVRRTATEEFVALTKDGKDYGKYRSKNGVTTQGAVLNKDTETTLAKKGWKAVKSYRKGNTNYLLNLDHAAVYEKKDRYVTYFFDQHDGNKVKATLAIPKEVEAKKSGFYGKASSALRTTDEKLMLRLMNWDRADYNLGALTPYSPLKPVTRAHSENMAKNNFFSHTDPERRDPFDRMKENGIRFSAAGENLSMGYPNVFAAHWGLMNSKGHRDNIMNKTFEQADTGVAFRDNAPYFTINFRTP,not soluble
2,MAPRVITLSPANTELAFAAGITPVGVSSYSDYPPQAQKIEQVSTWQGMNLERIVALKPDLVIAWRGGNAERQVDQLASLGIKVMWVDATSIEQIANALRQLAPWSPQPDKAEQAAQSLLDQYAQLKAQYADKPKKRVFLQFGINPPFTSGKESIQNQVLEVCGGENIFKDSRVPWPQVSREQVLARSPQAIVITGGPDQIPKIKQYWGEQLKIPVIPLTSDWFERASPRIILAAQQLCNALSQVDLEHHHHHH,soluble
3,MRTSSGQILTVTKEISLQASPTEIWSELIHINEVDSIEKKSIISSTLGFPRHIRTHLDTARVGGKRTAYYEKGLTFEETITAYEPERLMILDIKTDPDKISAQVMDEHILIGGKHLDILEDTYELQALSNGCSKLKLTSKFYINTPFNWYAGLWGNYLMSDILKNELELIKNRAEAKLEHHHHHH,soluble
4,MGSDKIHHHHHHAGLPDNLTPVGAERAASPDGRIPAWQGGLSTAQQRLGDNGTPLDPFADEQPLYRITAANYRQYRGQLTDGQVALLKRFPASLSLPVYPTHRSVAVPDAVAASAARNAEQAQLDDQGNGVRGFTGVIAFAQPTNGLEVIWNHLTRHRNVSYSLSSDSVTPLKNGRFVLMSARQEVARPEGLANLGAGNVLYYFTYRMTAPSRLAGDAMVVHETLDQVAEPRLSWVYSASQRRVRRAPNIAYDTTGPGTAGLRTADSRDMFNGAPDRYDWKLLGKQALHVPYNCYRLASPELRYVDLIKPGHIDPAPTRYELHRVWVVEATLKPGAQHIYAKRRFYLDEDTWAILETDSYDARGELWRTSQAHGFFHPSGQVAVNAMEITYDLKSGRYHASGLINEQRRPFAFNVRTSLSYFSPGALRSFGVR,not soluble
5,GSPQAHPVPKDARITHSSGQSFEQMRQECLQRGTLFEDADFPASNSSLFYSERPQIPFVWKRPGEIVKNPEFILGGATRTDICQGELGDCWLLAAIASLTLNQKALARVIPQDQSFGPGYAGIFHFQFWQHSEWLDVVIDDRLPTFRDRLVFLHSADHNEFWSALLEKAYAKLNGSYEALKGGSAIEAMEDFTGGVAETFQTKEAPENFYEILEKALKRGSLLGCFIDTRSAAESEARTPFGLIKGHAYSVTGIDQVSFRGQRIELIRIRNPWGQVEWNGSWSDSSPEWRSVGPAEQKRLCHTALDDGEFWMAFKDFKAHFDKVEICNLTPDA,soluble
6,MISIDPQFIKNFSKKVKQFDKFSLFVHVNPDFDAFGSAFAFKTFLNTFFSEKKAYVMGSYNINADGRELFPFEQTDINDDFVKESLAIIFDTSNQERVLTQKHKLAKETVRIDHHPRTEKFADMEWIDSSFSATAEMIGYLILQMGYKLNDEIASYLYAGIITDTQRFWGPTTTPQTFALTAKLMETGFNRNKVHDAVYLKPLLEHKYFSYVLSKAKITKNGLAYALIKKGAYKHFGVVSPLPMVHALNNIKGVKIWTTVYFNESIKKWIGSIRSRNIPINNFAQMFNGGGHKYAAAFVLDEKNQFMKLVQIMDDFLAKQNENS,not soluble
7,MGSDKIHHHHHHMTEPTRHQEHETETQEADLPNVCVVTHPLAAAGENATRSLLDILSAITSVALVTADLPADSEIRDRHELVELTQKGAGDSVVIAAFRFLLNQLRMCRVIAGRDEDVVLFFGATSYLLPIVVTRLLGKTVLVEPRGDVPLTLRLNWEQQLPDQVAAVLAGAVRALERAGFAVAHGVITYTPEMARQLDLHPESPSVYPTGARYVRTNEFCVQRPYADRDRVVGFLGRLDEEKGVRELAAVATQLPDDITFRFVGDGDLREWLEEDLAADIEAGHVELTGWVDHDKVPHALNDLELLILPSQPTEGLPTTILEALACGTPVYASPVSGVPDVVRDEETGFTIDSRESTALAAGIERILDRNDLAAISENGRTLIEREYSFDAACERYRGILRSVAGYSS,not soluble
8,MSLYKGYLIDLDGTIYKGKDRIPAGETFVHELQKRDIPYLFVTNNTTRTPESVKEMLAQNFNIDTPLSTVYTATLATIDYMNDLGLEKTVYVVGEAGLKEAIKAAGYVEDKEKPAYVVVGLDWQVDYEKFATATLAIQKGAHFIGTNPDLNIPTERGLLPGAGSLITLLEVATRVKPVYIGKPNAIIMDKAVEHLGLEREELIMVGDNYLTDIRAGIDNGIPTLLVTTGFTKAEEVAGLPIAPTHVVSSLAEWDFDENEGHHHHHH,soluble
9,LSLLGVGAASLYVSDSPQPKMAQSQHDTTIDLSSQKDFFEYSLSGLGEHSLEEIQENIEESISQQNSLGIDVELFQTYLAYKRALSKLEPLEDTTLSLSQLQRLNEAILNLQLEYFNDQQISQLFDEENRLRQLAIEKLVIKTYEQDSDSQQLLLNQALSEQPEYIQKSERNNALTRQLDQTELLSSQDKYLARVELVGEEGAQRLQKLDEQRATFEIELTNYLEKRADILNDEFLDSEQKQLEIANLRKQSFETTQWRRIEALERIHDS,not soluble
10,GMENIPFLRASTVPVIEYLDELKEIDASHIYTNYGPINQRFEQTIMSGFFQNRGAVTTVANATLGLMAAIQLKKRKKGKYALMPSFTFPATPLAAIWCGLEPYFIDISIDDWYMDKTVLWDKIEELKEEVAIVVPYATFGSWMNLEEYEELEKKGVPVVVDAAPGFGLMNGGMHYGQDFSGMIIYSFHATKPFGIGEGGLIYSKNEEDIQRIKRMGNFGFDTNRECTMMGFNCKMSEYAAAIGIATMKKWDDKLKERTRISEWYKQLLQSNGLMKKGWQLQKTEAVIQQFMPILCPEEVRNKQVIEDLKKQKIEARLYFSPSCHQQVLFRNYKSTDLTRTNKIAKRIVSLPLWEGMTKEIVEQIVICLGQKVVSADE,soluble
11,MAHHHHHHMMGHLTLPQLCLNVQHGKYSKKTQRPPTLSQRCVTTLISSRISRKLSPADCPTYTSTLLSAEGSTTENLKYNHRGPTTTFSATASNPIIFPN,not soluble
12,MSLAKVFTQEEREKIKGQVVELVRQSGRETLRQLEVKTGATRYLMSVLARELVASGDVYNSGYGLFPSEQARKDWQNARKKLSRAKVKKPAVVDPDLIWSSPDGEIRRYDSRLNIICRECRKSEAMQRVLAFYQGNFQEAVLEGHHHHHH,not soluble
13,MPAALLISGPCKICDLPAHGNHFGVLSCRACAAFFRRASRSPRFQDKACEYGDCRIFDAGAYRCKICRLKKCYKVGMDASKFQKDRDLISSSNAYLKRTKVYAPQSLANFLGRPEFIISFEPEKASPFKTVIDVTDLVHKAAEIFQEDLANSPMPYKYSNSLEKLTLEMEDLRLRSSNHKVKIVRNIGKAESLVFFEQMFLATANWYARLPDFTSLDLRVKLEILKSTWMLWIRLNKLAETAQNQRIKEMGANIFMCSENTCLNVQDINVDWSWCTNYGAEQMQAFLMPNIDKHWRQPVEDLVKLNPTDMELNFMLIQLCLNDAGKKFQGRVLEATDKLLQINADNLHNYYTKKLNMPSYSGRLTKLMKINQIVEEDVRERKEKAKIVEVFDLFSIVYSHPEMFEGT,not soluble
14,RLQPIIVPGWQGSGPGHWQTHWSRTLPHAVRLQQRDWHQPQRAEWVAALAAAVDAAPTPVLLVAHSLGCLVSAALPIALRAKVAGALLVAPADVERPGAPAAIAAFGPVPRQSLPYQSVVIASDDDPYCRLERARQFAQDWGSRLVVLQGAGHINADSQLGAWPQGLKQLAALRRRACW,not soluble
15,GPGSMAMRDVIGDPDLLLRKTPANPKYEHVKPVVETGMTAELARFMKNTGAALYRVSGEPFMRIRTRLIGDFVQKQQSQSGEIKDGGFAHPMDEYRAPDTQLPKEYLILDVRSEEEYAACHIKGALHYPKRRMVHAINPLLPEMFNFKNKENKLIVLYDLEEEMTIAQGIGQNVFEKGIDNLAVMTGGLREFVQDYADCIVGESPVPIVPRDTRLLKRAEAVSAARSETQRSAFSHKPKSLSNSLAKPRPR,soluble
16,MGSDKIHHHHHHMTRTTLEAGVTRRDVLKVAGLTGLGAALYASGLERWLPRALTAEATNQVPFYGKYQAGILTPPQNHVQIVAFDVQTTRRDELIDLLKRWTRACARLTAGLPLGDSDSLYVPPEDTGEAEGLSASHLTFTFGCGHGLFADDRFEIGHKRPNLLRELPAFDLDQLDPKWAGGDLVVQICADDQQVVFHALRNLTRIGRGIVKIRWTQTGFQRSKAADATGGTPRNLFGFKDGTGNPDVSQPAIRNKHLFYQWQDGSPWMTNGSFLVVRRIQMHLEVWDRTILKEQERTFGRDRASGAPLGSKDEFASVTPSKRTARGEASLPKDSHTAVAHGSGEAQLLRRSYSYQAGINETTGALDAGLLFLSYQRSPEQFITIQRRLAASDRLNEYITHRGSALFACFGGIQKGGYIGDALFA,not soluble
17,SNAMTLTALNAISPIDGRYVNKTRALSPYFSEFALTYYRLMVEIKWFESLAANDTIPEVPALDNKARKFLSDLISNFNESEAEKIKEFEKQTNHDVKAVEYYLQDKFQENEQLKSCVAFIHFACTSEDINNLAYALMIKQAIAQVIQPTIAEIMGSITLLGKQHADVAMLSRTHGQPATPTTMGKELVNFVARLKRPQQQLAEVLIPAKFNGAVGNYNAHVAAYPEVDWRKHCANFVTSLGLSFNAYTTQIEPHDGIAEVSQIMVRINNILLDYTQDIWSYISLGYFKQKTIAEEVGSSTMPHKVNPIDFENAEGNLGLSNALFIHFANKLTQSRMQRDLSDSTVLRNLGVAFSYSLIAYHSVAKGNDKLQINKSALQKDLSENWEVLAEAIQTVMRRYNEPNAYEQLKELTRGQMIDAENLKKFIKTLSIPEEAKAELMKLTPETYTGLATQLVKAFS,soluble
18,MSLRRGIYHIENAGVPSAIDLKDGSSSDGTPIVGWQFTPDTINWHQLWLAEPIPNVADTFTLCNLFSGTYMDLYNGSSEAGTAVNGWQGTAFTTNPHQLWTIKKSSDGTSYKIQNYGSKTFVDLVNGDSSDGAKIAGWTGTWDEGNPHQKWYFNRMSVSSAEAQAAIARNPHIHGTYRGYILDGEYLVLPNATFTQIWKDSGLPGSKWREQIYDCDDFAIAMKAAVGKWGADSWKANGFAIFCGVMLGVNKAGDAAHAYNFTLTKDHADIVFFEPQNGGYLNDIGYDSYMAFY,soluble
19,MEEEILSFVSIQSHVSSAGEKPIHVLDENPKFSRLHPSPSNIDSGEDSTSINKSNMESYGFSPVKIIEALIRETTAQGNVNMQRKSLFFPTQISDLFPAILNSKRKTG,soluble
20,SLKQQLIKNGLVLDMKGNHKPQAKDILIEGKWIRDIRPNIEPEVDTEIIDAEGKIVMPGFVDTHRHVWESLLRHIGTDWTLLTYLDNLYYGNLGSMLTPEDSYIANLWGALEAIDAGVTTVLDWSMLETPEHADASIKGLQAAGIRAVFAHGTPGYETYWSRDSEVRHPKDAKRVKKEYFQSDDQLLTMALAIRGPEFSSWEVTLDDIQLARELDAIASMHIGFGTWGPHDRSITRMREAGLLDSDLNLVHVNRIQPHEYEYIAESGASLSVTPEVEMMMGHGYPATGYLHKHRGLVTLGVDVVVATAGDMFAQMKFALQAERAWQNEQRLDRGEMPEQLKMTTNDVLTFATLNGAKALKLDDKIGTLDVGKEADLLLINPSSFNLFPLNHEPVGAVVQSARPENVDSVFIAGRPVKRHGKLLFDDLDGLRNKVLAASEAVFHRQAAKN,not soluble
